This is an account of results in patent US20210047432A1 (DIACCURATE, published 2021).

The target of assay [1] is immune complex of #2B2 with sPLA2-GIB (human, UniProt P04054 23-148). Briefly: flow cytometry, antibody-antigen immune complex on CHO cells expressing the receptor. The protocol:
(§1) Antibody-antigen immune complex were generated by co-incubation of 10 µg/ml of humanized antibodies and 5 μg/ml of sPLA2-GIB for 30 min at 37° C. Immune complexes were then incubated with 1×10⁵ CHO cells stably expressing human FcγRs for 30 min on ice. The cells were then washed, detached, fixed, and analyzed by flow cytometry (FACSCalibur; BD Biosciences).
(§2) The binding of monomeric #2B, #2B1 and #2B2 to human FcγRs was tested by flow cytometry by incubating the mAbs with CHO cells stably expressing human FcγRI, FcγRIIA (H131), FcγRIIA(R131), FcγRIIB, FcγRIIIA(F176), FcγRIIIA(V176), FcγRIIIB(NA1), FcγRIIIB(NA2), and FcγRIIIB(SH), (REF P. Bruhns). As presented in FIG. 9, #2B is binding to hFcγRI and hFcγRIIIA(V176) only, whereas no monomeric binding of #2B1 and #2B2 to all tested hFcγRs was observed. Antibody-antigen immune complex was tested by first incubating the mAb with the antigen and then, incubating the immune complexes formed with CHO cells stably expressing human FcγRs. The immune complexe of #2B is binding to all tested hFcγRs, except hFcγRIIB (FIG. 10). Weak binding is observed for immune complex of #2B1 to hFcγRIIIA(V176) (data not shown), whereas no immune complex binding of #2B2 to any tested hFcγRs (data not shown).

Assay [2] concerns the target T1, immune complex of #2B with sPLA2-GIB (human, UniProt P04054 23-148).
T1 construct: also called immune complexe of #2B; antibody-antigen immune complex
Described as above. Here is the method: as §1, §2

The target in assay [3] is T2, recombinant human pro-sPLA2-GIB (human, UniProt P04054 16-148).
T2 construct: also called pro-sPLA2-IB; proPLA2-GIB
T2 sequence (P04054 16-148): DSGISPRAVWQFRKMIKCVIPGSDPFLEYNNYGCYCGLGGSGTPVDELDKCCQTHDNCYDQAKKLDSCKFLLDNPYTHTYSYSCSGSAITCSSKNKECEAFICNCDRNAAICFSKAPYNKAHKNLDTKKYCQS
Kind of assay: competitive ELISA: constant antibody premixed with dilutions of soluble antigen, free antibody caught on antigen-coated plate. Here is the method: (§3) Binding affinities of the antibodies to pro-sPLA2-IB and sPLA2-IB were measured by plate-based competition immunoassay. For the competition ELISA, briefly, constant amounts of antibody at different levels were premixed with serial dilutions of antigen protein, human sPLA2-IB or pro-sPLA2-IB, ranging from 0 to 10 µg/ml, and incubated for two hours at room temperature to reach pseudo-binding equilibrium between the antibody and antigen. These solutions were then transferred to 96-well sPLA2-IB or pro-sPLA2-IB pre-coated plates to allow the free-antibody in the mixtures to bind to plate-coated sPLA2-IB or pro-sPLA2-IB. The plates were typically coated with 30 to 100 ng of human sPLA2-IB or pro-sPLA2-IB protein in PBS solution overnight at 4° C. followed by BSA nonspecific blocking. After washing off excess antibody in solution, plate-bound antibodies were detected with an HRP-conjugated goat anti-mouse IgG or IgA polyclonal antibody reagent and developed using colorimetric substrate. The dependency of the signals on the concentrations of antigen in solution was analyzed with a 4-parameter fit analysis using Prism™ software (Graph Pad) and reported as IC50.

Assay [4] has as its target T3, recombinant human sPLA2-GIB (mature secreted group IB pancreatic phospholipase A2) (human, UniProt P04054 23-148).
T3 construct: also called sPLA2-IB; PLA2-GIB mature form
The description is as above. The protocol:
as §3

The target in assay [5] is T2, recombinant human pro-sPLA2-GIB. Kind of assay: SPR (BIAcore 2000), antibody captured on anti-mouse IgG surface, antigen in solution. The protocol:
(§4) The affinity constants (KD) of the pro-sPLA2-IB and sPLA2-IB binding to the #14G9 antibody were determined by surface kinetics on a real-time biosensor surface plasmon resonance assay (BIAcore™). More specifically, the affinity of the antibodies for human pro-sPLA2-IB and sPLA2-IB was measured using a BIAcore® 2000. The antibody was captured on an anti-mouse IgG surface and exposed to various concentrations of recombinant pro-sPLA2-IB and sPLA2-IB protein. Kinetic analysis using BIAevaluation™ software was performed to obtain the association and dissociation rate constants.

Assay [6] addresses T3, recombinant human sPLA2-GIB (mature …). The assay is described as above. The protocol:
as §4

The target is the same in assay [7]. Briefly: indirect ELISA: antigen coated on the plate, #14G9 mAb titrated (x axis mAb, Log M, -9.5 to -6.5), OD450 nm readout. Here is the method:
(§5) Microplate wells were typically coated with 100 ng of recombinant human sPLA2-X, sPLA2-IB or pro-sPLA2-IB in PBS pH 7.5, overnight at 4° C. Sample wells were washed three times with PBS containing 0.05% Tween 20. After final washing, sample wells were treated with blocking solution containing 1% bovine serum albumin (BSA) in PBS buffer for 60 min at room temperature. Following washing with PBS containing 0.05% Tween 20, increasing amounts (10 ng/mL up to 3 μg/mL) of #14G9 mAb were added to antigen-coated wells. and incubated for 120 min at room temperature. Following washing with PBS containing 0.05% Tween 20, the binding of #14G9 mAb was detected with an HRP-conjugated goat anti-mouse IgG or IgA polyclonal antibody reagent and developed using colorimetric substrate. The dependency of the signals on the concentrations of antigen in solution was analyzed with a 4-parameter fit analysis using Prism™ software (Graph Pad) and reported as EC50.

In assay [8] the target is T2, recombinant human pro-sPLA2-GIB. Briefly: indirect ELISA: antigen coated on the plate, #14G9 mAb titrated (x axis mAb, Log M, -9.5 to -6.5), OD450 nm readout; the curve reaches only OD450 about 1.6 at the highest concentration, no upper plateau. Here is the method:
as §5

The target in assay [9] is T3, recombinant human sPLA2-GIB (mature …). Briefly: cell-based or functional assay.

T3 sequence (P04054 23-148): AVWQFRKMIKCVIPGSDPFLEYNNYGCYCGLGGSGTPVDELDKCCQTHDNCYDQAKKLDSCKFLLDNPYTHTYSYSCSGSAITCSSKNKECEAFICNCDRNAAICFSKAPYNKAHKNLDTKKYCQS
T1 sequence (heavy, as listed by the source, chain 1 of 3): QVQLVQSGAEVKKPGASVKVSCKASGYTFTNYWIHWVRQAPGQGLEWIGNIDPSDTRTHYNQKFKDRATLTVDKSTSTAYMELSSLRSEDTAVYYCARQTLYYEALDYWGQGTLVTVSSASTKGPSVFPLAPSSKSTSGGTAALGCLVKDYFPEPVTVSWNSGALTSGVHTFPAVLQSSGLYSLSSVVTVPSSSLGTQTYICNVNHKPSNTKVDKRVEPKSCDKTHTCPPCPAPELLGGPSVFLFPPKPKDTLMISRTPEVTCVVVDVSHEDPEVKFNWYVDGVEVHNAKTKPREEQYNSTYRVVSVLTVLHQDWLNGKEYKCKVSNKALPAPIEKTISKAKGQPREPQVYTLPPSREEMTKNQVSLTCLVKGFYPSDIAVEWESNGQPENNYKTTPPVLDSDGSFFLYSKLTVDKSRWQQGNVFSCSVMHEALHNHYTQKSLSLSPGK
T1 sequence (light, as listed by the source, chain 2 of 3): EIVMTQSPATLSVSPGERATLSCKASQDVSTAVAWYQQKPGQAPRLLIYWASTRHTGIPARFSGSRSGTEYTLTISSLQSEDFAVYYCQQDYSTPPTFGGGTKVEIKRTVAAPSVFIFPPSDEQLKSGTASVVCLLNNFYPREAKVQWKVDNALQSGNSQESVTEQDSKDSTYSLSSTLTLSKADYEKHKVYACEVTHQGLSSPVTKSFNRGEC
T1 sequence (P04054 23-148, chain 3 of 3): as the sequence (P04054 23-148) above
immune complex of #2B2 with sPLA2-GIB, sequence (heavy, as listed by the source, chain 1 of 3): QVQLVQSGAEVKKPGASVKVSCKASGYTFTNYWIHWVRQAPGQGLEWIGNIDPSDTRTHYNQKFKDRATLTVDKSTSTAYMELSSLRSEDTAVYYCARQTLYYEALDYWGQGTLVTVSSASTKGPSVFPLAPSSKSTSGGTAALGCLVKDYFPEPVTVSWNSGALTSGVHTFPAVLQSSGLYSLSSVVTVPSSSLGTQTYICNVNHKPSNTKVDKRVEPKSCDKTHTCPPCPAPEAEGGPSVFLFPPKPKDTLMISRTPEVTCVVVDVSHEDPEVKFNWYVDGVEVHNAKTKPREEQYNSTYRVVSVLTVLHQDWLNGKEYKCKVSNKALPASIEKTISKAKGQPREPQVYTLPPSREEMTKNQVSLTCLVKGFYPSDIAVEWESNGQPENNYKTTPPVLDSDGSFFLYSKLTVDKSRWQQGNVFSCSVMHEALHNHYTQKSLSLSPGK
immune complex of #2B2 with sPLA2-GIB, sequence (light, as listed by the source, chain 2 of 3): as the sequence (light, as listed by the source, chain 2 of 3) above
immune complex of #2B2 with sPLA2-GIB, sequence (P04054 23-148, chain 3 of 3): as the sequence (P04054 23-148) above

B1: human FcγRIIB (receptor, UniProt P31994 43-310, looked up)
chain: TPAAPPKAVLKLEPQWINVLQEDSVTLTCRGTHSPESDSIQWFHNGNLIPTHTQPSYRFKANNNDSGEYTCQTGQTSLSDPVHLTVLSEWLVLQTPHLEFQEGETIVLRCHSWKDKPLVKVTFFQNGKSKKFSRSDPNFSIPQANHSHSGDYHCTGNIGYTLYSSKPVTITVQAPSSSPMGIIVAVVTGIAVAAIVAAVVALIYCRKKRISALPGYPECREMGETLPEKPANPTNPDEADKVGAENTITYSLLMHPDALEEPDDQNRI
notes: whole, on cells; also called hFcγRIIB
Turning to B1, the binding result in [1] and in assay [2] was “no binding” each time.

B2: #14G9 mAb (mouse anti-sPLA2-GIB monoclonal antibody) (antibody, V domains shown)
VH: QVQLQQPGAELVKPGASVKLSCKASGYTFTNYWIHWVKRRPGQGLEWIGNIDPSDTRTHYNQKFKDKATLAVDKSSSTAYMQLSSLTSEDSAVFYCARQTLYYEALDYWGQGTTLTVSS
VL: DIVMTQSHKLMSTSVGDRVSITCKASQDVSTAVAWYQEKPGQSPKLLIYWASTRHTGVPNRFTGSRSGTDYTLTISSVQAEDLALYYCQQDYSTPPTFGAGTKLELKR
notes: Mouse hybridoma antibody; also called monoclonal antibody 14G9
For B2, the values for the IC50 in assay [3] and in assay [4] were 109 nM and 1 nM, respectively. Besides, the Kd in assay [5] was 174 nM; in assay [6], 0.34 nM. For the same molecule, the EC50 in [7] amounted to 6 nM; in assay [8] it was 158 nM. Besides, the “EC50 for the restoration of the sPLA2-IB effect on IL-7 induced phosphoSTAT5 nuclear translocation in human CD4 T cells (75 nM sPLA2-GIB)” value in assay [9] is 2.2 ng/mL. For the same molecule, the “inhibition of sPLA2-IB enzymatic activity, EC50” value in assay [9] came out at 2.3 nM.
